Target: T1, LHRH receptor (LHRH-R) (human (endogenous in MCF-7 and Hs68)) (UniProt P30968)
T1 sequence: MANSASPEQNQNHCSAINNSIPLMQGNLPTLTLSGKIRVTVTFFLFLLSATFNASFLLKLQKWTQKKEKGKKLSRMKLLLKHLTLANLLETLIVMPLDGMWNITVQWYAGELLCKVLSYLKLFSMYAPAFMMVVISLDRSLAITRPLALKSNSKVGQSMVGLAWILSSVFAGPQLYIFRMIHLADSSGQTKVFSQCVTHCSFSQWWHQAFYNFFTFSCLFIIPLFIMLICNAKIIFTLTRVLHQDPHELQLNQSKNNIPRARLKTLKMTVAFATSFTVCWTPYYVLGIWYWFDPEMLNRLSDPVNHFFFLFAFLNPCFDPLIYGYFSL

B1: LHRH-BinBC (luteinizing hormone-releasing hormone peptide fused through a GSG linker to the N-terminus of the pore-forming C-terminal domain of BinB) (protein)
chain: QHWSYGLRPGGSGIPQLPQTSLLENIPEPTSLDDSGVLPKDAVRAVKGSALLPCIIVHDPNLNNSDKMKFNTYYLLEYKEYWHQLWSQIIPAHQTVKIQERTGISEVVQNSMIEDLNMYIGADFGMLFYFRSSGFKEQITRGLNRPLSQTTTQLGERVEEMEYYNSNDLDVRYVKYALAREFTLKRVNGEIVKNWVAVDYRLAGIQSYPNAPITNPLTLTKHTIIRCENSYDGHIFKTPLIFKNGEVIVKTNEELIPKINQ
- IC50 of inhibition of MCF-7 cell proliferation (MTT assay, 48 h, 1-16 μM LHRH-BinBC): 11 µM

Reference: article PMC10145556
